The target in assay [1] is T1, TLR4 (Mus musculus, UniProt Q9QUK6).
T1 construct: from tissue; host or cells: dissociated lung cells (monocytes, alveolar macrophages, neutrophils) of day 7 Nb-infected mice
T1 sequence (Q9QUK6 26-835): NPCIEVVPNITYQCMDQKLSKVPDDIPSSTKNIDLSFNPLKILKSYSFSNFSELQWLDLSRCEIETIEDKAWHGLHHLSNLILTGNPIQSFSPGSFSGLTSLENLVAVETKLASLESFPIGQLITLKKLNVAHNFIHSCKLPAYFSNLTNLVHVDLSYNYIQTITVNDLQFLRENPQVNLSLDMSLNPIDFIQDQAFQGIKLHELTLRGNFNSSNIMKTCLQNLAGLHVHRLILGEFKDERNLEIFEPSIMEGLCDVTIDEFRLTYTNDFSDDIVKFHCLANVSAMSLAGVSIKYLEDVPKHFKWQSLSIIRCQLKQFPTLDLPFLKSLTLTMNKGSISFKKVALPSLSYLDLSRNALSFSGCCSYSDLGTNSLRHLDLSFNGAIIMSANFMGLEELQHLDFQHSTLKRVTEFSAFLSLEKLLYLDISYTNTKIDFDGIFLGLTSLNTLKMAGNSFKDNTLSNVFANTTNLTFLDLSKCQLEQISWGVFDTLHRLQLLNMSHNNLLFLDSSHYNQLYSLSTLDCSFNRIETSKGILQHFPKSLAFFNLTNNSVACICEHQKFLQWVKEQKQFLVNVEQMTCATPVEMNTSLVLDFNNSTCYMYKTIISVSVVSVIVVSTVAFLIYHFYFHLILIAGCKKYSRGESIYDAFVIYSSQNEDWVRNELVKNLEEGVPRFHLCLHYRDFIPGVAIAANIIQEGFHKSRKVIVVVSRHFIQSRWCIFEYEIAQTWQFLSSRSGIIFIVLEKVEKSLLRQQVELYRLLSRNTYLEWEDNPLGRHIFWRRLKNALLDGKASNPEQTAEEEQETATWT
The experiment in a line: hRetn cellular binding assay on dissociated lung cells from Nb-infected Tlr4+/+ or Tlr4−/− mice. To be noted: Ly6C+CD11b+ lung cells, Nb-infected mice. It counts as cell-based. The procedure:
(§1) Binding Assay and Flow Cytometry. Single cell suspension of lung tissue was prepared and hRetn binding was measured as previously described in Jang et al., 2015, supra. Briefly, dissociated lung cells were incubated for 1 hour at 4° C. with 0.5 μg recombinant hResistin (Peprotech) or PBS, followed by 2× wash in FACS buffer, incubation with Fc block (5 μg/mL αCD16/32 and 10 μg/mL purified rat IgG1, 5 min at 4° C.). Cells were stained with biotinylated α-hRetn (Peprotech, 30 min at 4° C.) followed by detection with BV605-conjugated streptavidin (BD) and surface marker antibodies. To collect peritoneal exudate cells (PECs), the peritoneal cavity was washed and PECs recovered in 5 mL ice cold PBS. Surface marker antibodies were: F4/80 (clone A3-1), SiglecF (clone E50-2440), CD4 (clone RM4-5), Ly6C (HK1.4), CD11b (clone M1/70), CD11c (clone N418), Ly6G (clone 1A8), MHCII (clone M5/114.15.2) and CD3e (clone 145-2C11), CD115 (clone AFS98), purchased from Affymetrix, BD Biosciences or Biolegend. Cell populations were determined as follows: peritoneal macrophage (F4/80+CD11b+), neutrophils (Ly6G+CD11b+), eosinophils (SiglecF+CD11c−) and monocyte (Ly6C+CD11b+), alveolar macrophages (F4/80+CD11c+). For flow cytometric analysis, all samples were run on the BD LSRII and analyzed on FlowJo (v10).

Assay [2] has as its system TLR4. The description is as above. It counts as cell-based, mouse. The procedure: as §1
The target in assay [3] is human TLR4 (Homo sapiens, UniProt O00206). The experiment in a line: Pull-down assay with His-tagged human TLR4. Type of assay: binding. To be noted: nickel-NTA agarose beads, anti-hRetn blot. The procedure: Pull-down Assay. 1 μg/ml protein His-tagged MBP, human TLR4 and human CAP1 were added to nickel-nitrilotriacetic acid-agarose beads (Invitrogen) in binding buffer (50 mM NaH2PO4, 500 mM NaCl, 10 mM Imidazole, pH 8.0) and mixed for 1 hour at 4° C., followed by washing and 1 h incubation at 4° C. with hRetn (E. coli-derived, Peprotech or 293T cell-derived, LifeSpan Biosciences) in binding buffer. Beads were washed in wash buffer (50 mM NaH2PO4, 500 mM NaCl, 20 mM Imidazole, pH 8.0), and complex protein eluted with elution buffer (50 mM NaH2PO4, 500 mM NaCl, 250 mM Imidazole, pH 6.0). His-MBP, His-TLR4 and His-CAP1 were detected by anti-His antibody (Abcam), and hRetn was detected by anti-hRetn antibody (donated by Mitchell Lazar) by Western Blot. For the N-peptide binding experiment, 1 μg/ml His-tagged human TLR4 with 500 ng/ml N-peptide or 10% TFE control was added to the beads in binding buffer and mixed for 30 min at 4° C., followed by co-immunoprecipitation using 1 μg/ml Flag-hRetn (LifeSpan Biosciences), anti-His or anti-Flag (Sigma).
human TLR4, sequence (O00206 24-839): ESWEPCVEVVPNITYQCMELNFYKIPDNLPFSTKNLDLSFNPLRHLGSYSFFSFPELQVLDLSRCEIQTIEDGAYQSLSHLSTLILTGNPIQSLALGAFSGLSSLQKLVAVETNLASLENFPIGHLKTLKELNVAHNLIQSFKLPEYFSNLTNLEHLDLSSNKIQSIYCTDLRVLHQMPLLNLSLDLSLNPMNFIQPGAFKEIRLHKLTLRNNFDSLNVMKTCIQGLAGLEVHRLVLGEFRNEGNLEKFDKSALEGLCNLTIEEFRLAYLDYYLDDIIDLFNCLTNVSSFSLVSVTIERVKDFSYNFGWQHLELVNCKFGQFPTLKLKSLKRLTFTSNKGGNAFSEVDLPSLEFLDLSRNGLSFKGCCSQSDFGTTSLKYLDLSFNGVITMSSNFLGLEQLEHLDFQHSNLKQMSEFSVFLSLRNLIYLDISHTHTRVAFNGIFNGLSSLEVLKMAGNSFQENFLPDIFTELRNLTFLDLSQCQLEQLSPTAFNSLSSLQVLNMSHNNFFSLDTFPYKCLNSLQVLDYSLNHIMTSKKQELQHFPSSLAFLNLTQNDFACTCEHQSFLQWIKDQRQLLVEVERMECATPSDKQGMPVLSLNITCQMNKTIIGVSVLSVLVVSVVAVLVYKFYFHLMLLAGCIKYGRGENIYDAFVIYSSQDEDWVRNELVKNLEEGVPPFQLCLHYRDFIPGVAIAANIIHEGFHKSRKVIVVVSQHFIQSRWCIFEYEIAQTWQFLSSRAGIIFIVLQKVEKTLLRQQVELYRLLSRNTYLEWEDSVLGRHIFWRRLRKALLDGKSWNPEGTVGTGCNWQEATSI

The source of these data is patent US20220009987A9, “HUMAN RESISTIN COMPOSITIONS AND METHODS OF TREATING TLR4-MEDIATED DISEASE AND INFECTION” (THE REGENTS OF THE UNIVERSITY OF CALIFORNIA, priority 2017, published 2022).

B1: hRetn: human resistin protein (hRetn) having an amino acid sequence of SEQ ID NO: 1; recombinant, E. coli-derived or 293T cell-derived (protein, listed as Homo sapiens)
chain: MKALCLLLLPVLGLLVSSKTLCSMEEAINERIQEVAGSLIFRAISSIGLECQSVTSRGDLATCPRGFAVTGCTCGSACGSWDVRAETTCHCQCAGMDWTGARCCRVQP
Turning to B1, the “hRetn binding to Tlr4+/+ monocytes” value in assay [1] is on record as “able to bind hRetn”. Moreover, in assay [2] (F4/80+CD11c+ lung cells, Tlr4+/+ vs Tlr4−/−), the “hRetn binding to alveolar macrophages” value is on record as “TLR4-dependent binding”. In addition, in assay [2] (Ly6C+CD11b+ lung cells, Nb-infected mice), the “hRetn binding to Tlr4−/− monocytes” value is “significantly abrogated”. Also, the “hRetn binding to neutrophils in the absence of TLR4” value in assay [2] (Ly6G+CD11b+ lung cells, Tlr4−/−) is “not noticeably affected”. Further, in assay [2] (lung cells, Nb-infected mice), the “frequency of hRetn-bound cells in monocytes” value was found to be 15% and the “frequency of hRetn-bound cells in neutrophils” value came to 8%. Besides, the “hRetn in pull-down elution with his-TLR4 (Western blot)” value in assay [3] was “only present in the elution with his-TLR4”. For the same molecule, the “hRetn in pull-down elution with his-TLR4 (Western blot)” value in assay [3] (listed as mammalian-derived hRetn) is listed as “only detected when pulled down with his-TLR4”.
